Earlier results as cited in publication PMC5413910.

Target: linear (Met1-linked) diubiquitin (Homo sapiens) (UniProt P0CG48)

Chain of OTULIN (Q96BN8 whole entry): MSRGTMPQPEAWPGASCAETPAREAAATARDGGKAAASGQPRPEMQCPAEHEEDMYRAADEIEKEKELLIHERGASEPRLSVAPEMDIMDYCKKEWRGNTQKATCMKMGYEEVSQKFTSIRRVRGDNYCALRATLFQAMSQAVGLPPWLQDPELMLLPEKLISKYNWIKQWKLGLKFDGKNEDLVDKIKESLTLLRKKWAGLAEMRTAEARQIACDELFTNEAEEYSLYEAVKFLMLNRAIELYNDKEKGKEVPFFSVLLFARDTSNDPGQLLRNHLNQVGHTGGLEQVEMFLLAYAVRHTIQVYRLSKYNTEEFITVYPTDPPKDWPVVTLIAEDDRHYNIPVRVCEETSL

For OTULIN (from UniProt Q96BN8), the Kd is listed as 150 nM.
